Measurements taken from publication PMC2943598 (Nucleic Acids Research, 2010).

Columns and labels:
[1] = biological target: T1, Alexa fluor 488-labeled M. thermautotrophicus ND-GluRS (Methanothermobacter thermautotrophicus), O26157; experiment: fluorescence polarisation; conditions: remark: other sources report otherwise
T1 chain: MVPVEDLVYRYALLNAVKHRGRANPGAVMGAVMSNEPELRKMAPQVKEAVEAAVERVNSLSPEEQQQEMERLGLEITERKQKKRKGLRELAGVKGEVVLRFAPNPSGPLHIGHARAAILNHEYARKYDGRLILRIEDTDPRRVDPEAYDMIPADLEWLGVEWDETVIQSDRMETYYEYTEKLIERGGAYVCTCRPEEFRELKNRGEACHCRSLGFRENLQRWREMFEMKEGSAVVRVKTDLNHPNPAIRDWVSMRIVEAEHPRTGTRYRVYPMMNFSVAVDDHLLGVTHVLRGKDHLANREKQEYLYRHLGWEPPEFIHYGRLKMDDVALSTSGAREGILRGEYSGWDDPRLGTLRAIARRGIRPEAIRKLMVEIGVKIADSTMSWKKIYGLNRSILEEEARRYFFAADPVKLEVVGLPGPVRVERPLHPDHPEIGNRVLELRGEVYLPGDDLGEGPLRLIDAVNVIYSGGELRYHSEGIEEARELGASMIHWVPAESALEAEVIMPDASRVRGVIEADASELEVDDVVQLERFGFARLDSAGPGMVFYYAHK

[2] = biological target: T2, Methanothermobacter thermautotrophicus non-discriminating glutamyl-tRNA synthetase (Methanothermobacter thermautotrophicus), O26157; experiment: nitrocellulose filter-binding competition; conditions: remark: other sources report otherwise
T2 chain: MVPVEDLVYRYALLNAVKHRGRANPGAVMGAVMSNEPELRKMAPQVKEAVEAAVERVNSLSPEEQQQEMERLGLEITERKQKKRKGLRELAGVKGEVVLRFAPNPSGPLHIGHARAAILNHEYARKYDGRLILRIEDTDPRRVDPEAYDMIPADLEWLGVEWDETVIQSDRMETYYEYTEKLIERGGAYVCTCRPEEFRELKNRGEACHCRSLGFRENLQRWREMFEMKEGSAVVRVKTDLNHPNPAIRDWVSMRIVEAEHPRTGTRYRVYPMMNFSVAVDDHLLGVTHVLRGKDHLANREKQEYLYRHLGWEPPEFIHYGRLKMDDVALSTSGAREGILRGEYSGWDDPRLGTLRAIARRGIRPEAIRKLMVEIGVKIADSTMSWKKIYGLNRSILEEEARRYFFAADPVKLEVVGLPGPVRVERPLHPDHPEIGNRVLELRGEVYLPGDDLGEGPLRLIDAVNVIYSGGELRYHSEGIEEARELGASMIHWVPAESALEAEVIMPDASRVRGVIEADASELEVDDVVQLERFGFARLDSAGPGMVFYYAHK

[3] = biological target: the molecule itself; experiment: SEC
[4] = biological target: T3, Methanothermobacter thermautotrophicus glutamyl-tRNA(Gln) amidotransferase GatDE, His6-tagged (Methanothermobacter thermautotrophicus), O26802; experiment: SEC; conditions: remark: other sources report otherwise
T3 chain 1: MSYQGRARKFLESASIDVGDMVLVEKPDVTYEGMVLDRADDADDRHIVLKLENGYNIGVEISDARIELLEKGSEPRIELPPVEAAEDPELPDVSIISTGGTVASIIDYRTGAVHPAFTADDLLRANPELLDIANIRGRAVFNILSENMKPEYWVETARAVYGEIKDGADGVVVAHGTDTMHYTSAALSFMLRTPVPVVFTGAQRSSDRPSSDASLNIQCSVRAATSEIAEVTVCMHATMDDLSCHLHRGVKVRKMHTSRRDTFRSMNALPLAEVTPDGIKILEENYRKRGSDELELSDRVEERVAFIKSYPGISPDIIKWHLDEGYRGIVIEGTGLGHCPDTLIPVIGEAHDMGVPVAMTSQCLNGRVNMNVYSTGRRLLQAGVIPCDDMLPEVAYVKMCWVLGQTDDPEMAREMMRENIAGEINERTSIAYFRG
T3 chain 2: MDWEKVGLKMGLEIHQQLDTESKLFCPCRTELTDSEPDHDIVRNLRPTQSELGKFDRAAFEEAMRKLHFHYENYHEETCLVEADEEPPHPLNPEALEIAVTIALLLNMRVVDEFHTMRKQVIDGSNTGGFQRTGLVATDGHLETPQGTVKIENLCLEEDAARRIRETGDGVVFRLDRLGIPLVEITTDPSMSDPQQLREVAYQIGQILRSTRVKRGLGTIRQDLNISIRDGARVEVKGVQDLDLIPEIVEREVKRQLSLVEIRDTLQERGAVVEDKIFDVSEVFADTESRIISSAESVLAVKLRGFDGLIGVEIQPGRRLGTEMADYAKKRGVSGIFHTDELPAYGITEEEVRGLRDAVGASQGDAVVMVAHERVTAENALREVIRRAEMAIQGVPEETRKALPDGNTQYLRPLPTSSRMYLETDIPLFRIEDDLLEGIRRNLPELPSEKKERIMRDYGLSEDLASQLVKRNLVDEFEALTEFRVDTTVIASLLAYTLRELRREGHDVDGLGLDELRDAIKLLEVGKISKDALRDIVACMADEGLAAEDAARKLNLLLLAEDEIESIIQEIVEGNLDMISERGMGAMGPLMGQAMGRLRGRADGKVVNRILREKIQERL

B1: Methanothermobacter thermautotrophicus glutamyl-tRNA(Gln) amidotransferase GatDE, His6-tagged, O26802 1-435; O26803 1-619 (complex)
chain 1: MSYQGRARKFLESASIDVGDMVLVEKPDVTYEGMVLDRADDADDRHIVLKLENGYNIGVEISDARIELLEKGSEPRIELPPVEAAEDPELPDVSIISTGGTVASIIDYRTGAVHPAFTADDLLRANPELLDIANIRGRAVFNILSENMKPEYWVETARAVYGEIKDGADGVVVAHGTDTMHYTSAALSFMLRTPVPVVFTGAQRSSDRPSSDASLNIQCSVRAATSEIAEVTVCMHATMDDLSCHLHRGVKVRKMHTSRRDTFRSMNALPLAEVTPDGIKILEENYRKRGSDELELSDRVEERVAFIKSYPGISPDIIKWHLDEGYRGIVIEGTGLGHCPDTLIPVIGEAHDMGVPVAMTSQCLNGRVNMNVYSTGRRLLQAGVIPCDDMLPEVAYVKMCWVLGQTDDPEMAREMMRENIAGEINERTSIAYFRG
chain 2: MDWEKVGLKMGLEIHQQLDTESKLFCPCRTELTDSEPDHDIVRNLRPTQSELGKFDRAAFEEAMRKLHFHYENYHEETCLVEADEEPPHPLNPEALEIAVTIALLLNMRVVDEFHTMRKQVIDGSNTGGFQRTGLVATDGHLETPQGTVKIENLCLEEDAARRIRETGDGVVFRLDRLGIPLVEITTDPSMSDPQQLREVAYQIGQILRSTRVKRGLGTIRQDLNISIRDGARVEVKGVQDLDLIPEIVEREVKRQLSLVEIRDTLQERGAVVEDKIFDVSEVFADTESRIISSAESVLAVKLRGFDGLIGVEIQPGRRLGTEMADYAKKRGVSGIFHTDELPAYGITEEEVRGLRDAVGASQGDAVVMVAHERVTAENALREVIRRAEMAIQGVPEETRKALPDGNTQYLRPLPTSSRMYLETDIPLFRIEDDLLEGIRRNLPELPSEKKERIMRDYGLSEDLASQLVKRNLVDEFEALTEFRVDTTVIASLLAYTLRELRREGHDVDGLGLDELRDAIKLLEVGKISKDALRDIVACMADEGLAAEDAARKLNLLLLAEDEIESIIQEIVEGNLDMISERGMGAMGPLMGQAMGRLRGRADGKVVNRILREKIQERL
modifications: here or on the partner: Alexa fluor 488 label (residues not stated)
Kd [1]: 100 nM | Ki [2]: 33 nM

B2: Methanothermobacter thermautotrophicus glutamyl-tRNA(Gln) amidotransferase GatDE, His6-tagged (complex)
chain 1: MSYQGRARKFLESASIDVGDMVLVEKPDVTYEGMVLDRADDADDRHIVLKLENGYNIGVEISDARIELLEKGSEPRIELPPVEAAEDPELPDVSIISTGGTVASIIDYRTGAVHPAFTADDLLRANPELLDIANIRGRAVFNILSENMKPEYWVETARAVYGEIKDGADGVVVAHGTDTMHYTSAALSFMLRTPVPVVFTGAQRSSDRPSSDASLNIQCSVRAATSEIAEVTVCMHATMDDLSCHLHRGVKVRKMHTSRRDTFRSMNALPLAEVTPDGIKILEENYRKRGSDELELSDRVEERVAFIKSYPGISPDIIKWHLDEGYRGIVIEGTGLGHCPDTLIPVIGEAHDMGVPVAMTSQCLNGRVNMNVYSTGRRLLQAGVIPCDDMLPEVAYVKMCWVLGQTDDPEMAREMMRENIAGEINERTSIAYFRG
chain 2: MDWEKVGLKMGLEIHQQLDTESKLFCPCRTELTDSEPDHDIVRNLRPTQSELGKFDRAAFEEAMRKLHFHYENYHEETCLVEADEEPPHPLNPEALEIAVTIALLLNMRVVDEFHTMRKQVIDGSNTGGFQRTGLVATDGHLETPQGTVKIENLCLEEDAARRIRETGDGVVFRLDRLGIPLVEITTDPSMSDPQQLREVAYQIGQILRSTRVKRGLGTIRQDLNISIRDGARVEVKGVQDLDLIPEIVEREVKRQLSLVEIRDTLQERGAVVEDKIFDVSEVFADTESRIISSAESVLAVKLRGFDGLIGVEIQPGRRLGTEMADYAKKRGVSGIFHTDELPAYGITEEEVRGLRDAVGASQGDAVVMVAHERVTAENALREVIRRAEMAIQGVPEETRKALPDGNTQYLRPLPTSSRMYLETDIPLFRIEDDLLEGIRRNLPELPSEKKERIMRDYGLSEDLASQLVKRNLVDEFEALTEFRVDTTVIASLLAYTLRELRREGHDVDGLGLDELRDAIKLLEVGKISKDALRDIVACMADEGLAAEDAARKLNLLLLAEDEIESIIQEIVEGNLDMISERGMGAMGPLMGQAMGRLRGRADGKVVNRILREKIQERL
stoichiometry N [3]: 2

B3: Methanothermobacter thermautotrophicus non-discriminating glutamyl-tRNA synthetase, O26157 1-553 (enzyme)
chain: MVPVEDLVYRYALLNAVKHRGRANPGAVMGAVMSNEPELRKMAPQVKEAVEAAVERVNSLSPEEQQQEMERLGLEITERKQKKRKGLRELAGVKGEVVLRFAPNPSGPLHIGHARAAILNHEYARKYDGRLILRIEDTDPRRVDPEAYDMIPADLEWLGVEWDETVIQSDRMETYYEYTEKLIERGGAYVCTCRPEEFRELKNRGEACHCRSLGFRENLQRWREMFEMKEGSAVVRVKTDLNHPNPAIRDWVSMRIVEAEHPRTGTRYRVYPMMNFSVAVDDHLLGVTHVLRGKDHLANREKQEYLYRHLGWEPPEFIHYGRLKMDDVALSTSGAREGILRGEYSGWDDPRLGTLRAIARRGIRPEAIRKLMVEIGVKIADSTMSWKKIYGLNRSILEEEARRYFFAADPVKLEVVGLPGPVRVERPLHPDHPEIGNRVLELRGEVYLPGDDLGEGPLRLIDAVNVIYSGGELRYHSEGIEEARELGASMIHWVPAESALEAEVIMPDASRVRGVIEADASELEVDDVVQLERFGFARLDSAGPGMVFYYAHK
stoichiometry N (ND-GluRS monomers per GatDE homodimer) [4]: 2
